# Data: US20220177587A1, “METHODS AND USES OF VARIANT CD80 FUSION PROTEINS AND RELATED CONSTRUCTS” (Alpine Immune Sciences, Inc., priority 2018, published 2022)
# B1: E35D/M47L/L85Q: variant CD80 IgV-Fc, IgV SEQ ID NO:418 (protein)
# chain: VIHVTKEVKEVATLSCGHNVSVEELAQTRIYWQKDKKMVLTMMSGDLNIWPEYKNRTIFDITNNLSIVILALRPSDEGTYECVVQKYEKDAFKREHLAEVTLSVKAD
# B2: A26E/E35D/M47L/A71G (protein)
# chain: VIHVTKEVKEVATLSCGHNVSVEELEQTRIYWQKDKKMVLTMMSGDLNIWPEYKNRTIFDITNNLSIVILGLRPSDEGTYECVVLKYEKDAFKREHLAEVTLSVKAD
# B3: V22A/E35D/M47I/Y87N (protein)
# chain: VIHVTKEVKEVATLSCGHNVSAEELAQTRIYWQKDKKMVLTMMSGDINIWPEYKNRTIFDITNNLSIVILALRPSDEGTYECVVLKNEKDAFKREHLAEVTLSVKADFPTPSISDFETPTSNIRRIICSTSGGFPEPHLSWLENGEELNAINTTVSQDPETELYAVSSKLDFNMTTNHSFMCLIKYGHLRVNQTFNWNTTKQEHFPDN
# modifications: CD80 v253 ECD
# B4: V22L/Q27H/E35D/M47I/A71G (protein)
# chain: VIHVTKEVKEVATLSCGHNVSLEELAHTRIYWQKDKKMVLTMMSGDINIWPEYKNRTIFDITNNLSIVILGLRPSDEGTYECVVLKYEKDAFKREHLAEVTLSVKADFPTPSISDFETPTSNIRRIICSTSGGFPEPHLSWLENGEELNAINTTVSQDPETELYAVSSKLDFNMTTNHSFMCLIKYGHLRVNQTFNWNTTKQEHFPDN
# modifications: CD80 v274 ECD
# B5: Q33L/E35D/M47I/N48D/A71G (protein, UniProt P33681 35-288, looked up, variant Q33L E35D M47I N48D A71G)
# T-lymphocyte activation …: VIHVTKEVKEVATLSCGHNVSVEELAQTRIYWLKDKKMVLTMMSGDIDIWPEYKNRTIFDITNNLSIVILGLRPSDEGTYECVVLKYEKDAFKREHLAEVTLSVKADFPTPSISDFEIPTSNIRRIICSTSGGFPEPHLSWLENGEELNAINTTVSQDPETELYAVSSKLDFNMTTNHSFMCLIKYGHLRVNQTFNWNTTKQEHFPDNLLPSWAITLISVNGIFVICCLTYCFAPRCRERRRNERLRRESVRPV
# B6: E35D/M47V/A71G (protein, UniProt P33681 35-288, looked up, variant E35D M47V A71G)
# T-lymphocyte activation …: VIHVTKEVKEVATLSCGHNVSVEELAQTRIYWQKDKKMVLTMMSGDVNIWPEYKNRTIFDITNNLSIVILGLRPSDEGTYECVVLKYEKDAFKREHLAEVTLSVKADFPTPSISDFEIPTSNIRRIICSTSGGFPEPHLSWLENGEELNAINTTVSQDPETELYAVSSKLDFNMTTNHSFMCLIKYGHLRVNQTFNWNTTKQEHFPDNLLPSWAITLISVNGIFVICCLTYCFAPRCRERRRNERLRRESVRPV
# B7: E35D/M47I/L85Q/D90G (protein, UniProt P33681 35-288, looked up, variant E35D M47I L85Q D90G)
# T-lymphocyte activation …: VIHVTKEVKEVATLSCGHNVSVEELAQTRIYWQKDKKMVLTMMSGDINIWPEYKNRTIFDITNNLSIVILALRPSDEGTYECVVQKYEKGAFKREHLAEVTLSVKADFPTPSISDFEIPTSNIRRIICSTSGGFPEPHLSWLENGEELNAINTTVSQDPETELYAVSSKLDFNMTTNHSFMCLIKYGHLRVNQTFNWNTTKQEHFPDNLLPSWAITLISVNGIFVICCLTYCFAPRCRERRRNERLRRESVRPV
# B8: H18Y/A26E/E35D/M47L/L85Q/D90G (protein, UniProt P33681 35-288, looked up, variant H18Y A26E E35D M47L L85Q D90G)
# T-lymphocyte activation …: VIHVTKEVKEVATLSCGYNVSVEELEQTRIYWQKDKKMVLTMMSGDLNIWPEYKNRTIFDITNNLSIVILALRPSDEGTYECVVQKYEKGAFKREHLAEVTLSVKADFPTPSISDFEIPTSNIRRIICSTSGGFPEPHLSWLENGEELNAINTTVSQDPETELYAVSSKLDFNMTTNHSFMCLIKYGHLRVNQTFNWNTTKQEHFPDNLLPSWAITLISVNGIFVICCLTYCFAPRCRERRRNERLRRESVRPV
# B9: E35D/T41S/M43V/M47I/L70M/A71G (protein, UniProt P33681 35-288, looked up, variant E35D T41S M43V M47I L70M A71G)
# T-lymphocyte activation …: VIHVTKEVKEVATLSCGHNVSVEELAQTRIYWQKDKKMVLSMVSGDINIWPEYKNRTIFDITNNLSIVIMGLRPSDEGTYECVVLKYEKDAFKREHLAEVTLSVKADFPTPSISDFEIPTSNIRRIICSTSGGFPEPHLSWLENGEELNAINTTVSQDPETELYAVSSKLDFNMTTNHSFMCLIKYGHLRVNQTFNWNTTKQEHFPDNLLPSWAITLISVNGIFVICCLTYCFAPRCRERRRNERLRRESVRPV
# modifications: Fc fusion
# B10: R29H/E35D/M43V/M47I/I49V (protein, UniProt P33681 35-288, looked up, variant R29H E35D M43V M47I I49V)
# T-lymphocyte activation …: VIHVTKEVKEVATLSCGHNVSVEELAQTHIYWQKDKKMVLTMVSGDINVWPEYKNRTIFDITNNLSIVILALRPSDEGTYECVVLKYEKDAFKREHLAEVTLSVKADFPTPSISDFEIPTSNIRRIICSTSGGFPEPHLSWLENGEELNAINTTVSQDPETELYAVSSKLDFNMTTNHSFMCLIKYGHLRVNQTFNWNTTKQEHFPDNLLPSWAITLISVNGIFVICCLTYCFAPRCRERRRNERLRRESVRPV
# Legend:
# CD28 [1] = biological target: T1, CD28 (Homo sapiens, UniProt P10747); assay: Flow binding to Jurkat/IL2 reporter cells (CD28); set-up: host or cells: Jurkat cells expressing an IL-2-luciferase reporter; conditions: for CD28 Fold change to WT CD80: MFI ratio to WT CD80 ECD-Fc (R&D) at 33.3 nM
# Outline: (§1)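 Cells were first blocked in PBS with 1% BSA and 0.1% sodium azide. Primary staining with fusion protein ran 45 min on ice, and secondary staining with PE anti-human Fc at 1:150 ran 30 min on ice.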
# huCTLA4 = huCTLA4 (Homo sapiens, UniProt P16410); assay: Flow binding to CHO cells stably expressing CTLA4; set-up: huCTLA4 and huPD-L1, full-length mammalian surface expression constructs were generated; expressed in transfected cells; host or cells: CHO cells, lentiviral transduction, sorted to >98% purity; conditions: for CTLA4 Fold change to WT CD80: MFI ratio to WT CD80 ECD-Fc (R&D) at 33.3 nM
# huCTLA4, sequence (P16410 36-223): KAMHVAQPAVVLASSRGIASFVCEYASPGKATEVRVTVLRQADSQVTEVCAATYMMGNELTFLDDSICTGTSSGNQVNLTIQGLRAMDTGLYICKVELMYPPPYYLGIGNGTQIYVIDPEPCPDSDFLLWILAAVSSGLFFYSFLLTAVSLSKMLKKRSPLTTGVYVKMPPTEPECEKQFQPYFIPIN
# Outline: as §1
# huPD-L1 = huPD-L1 (Homo sapiens, UniProt Q9NZQ7); assay: Flow binding to CHO cells stably expressing PD-L1; set-up: huCTLA4 and huPD-L1, full-length mammalian surface expression constructs were generated; expressed in transfected cells; host or cells: CHO cells, lentiviral transduction, sorted to >98% purity; conditions: for PD-L1 Fold change to WT CD80: MFI ratio to WT CD80 ECD-Fc (R&D) at 33.3 nM; for Ratio of PDL1:CD28: binding to PD-L1 compared to binding to CD28
# huPD-L1, sequence (Q9NZQ7 19-290): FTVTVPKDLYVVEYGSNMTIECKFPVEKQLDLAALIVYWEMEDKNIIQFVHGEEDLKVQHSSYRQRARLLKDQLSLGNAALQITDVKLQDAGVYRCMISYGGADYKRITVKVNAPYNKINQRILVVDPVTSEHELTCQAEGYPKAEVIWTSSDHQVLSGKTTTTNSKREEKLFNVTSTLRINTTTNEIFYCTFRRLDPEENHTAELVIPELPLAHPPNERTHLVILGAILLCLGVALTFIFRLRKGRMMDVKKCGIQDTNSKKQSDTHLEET
# Outline: as §1
# CD28 [2] = biological target: T1, CD28; assay: Jurkat/IL2 + K562/OKT3/PD-L1 reporter assay; assay type: cell-based; set-up: host or cells: Jurkat cells expressing an IL-2-luciferase reporter; conditions: K562/OKT3/PD-L1 aAPC, 50 nM; for Relative Luciferase Units (RLU), CD80-Fe Cone 50 nM / Fold Increase over WT CD80-IgV-Fe: Table E8
# CD28 [3] = biological target: T1, CD28; assay: Jurkat/IL2 + CHO/OKT3 +/- PD-L1 reporter assay: PD-L1-dependent CD28 costimulation; assay type: cell-based; set-up: host or cells: Jurkat cells expressing an IL-2-luciferase reporter; conditions: Table E22; Jurkat/IL2 + CHO/OKT3/PD-L1; CD80 Conc 5.0 nM
# Outline: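 Readout is relative luminescence from lysed cocultures: test protein given 15 min at room temperature to Jurkat cells before adding CHO artificial APCs displaying OKT3 alone or OKT3 plus PD-L1, then 5 h at 37 °C, 5% CO2.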
# [4] = Table E4, 33.3 nM variant CD80 IgV-Fc, CHO cells stably expressing CTLA4
# [5] = Table E4, CHO cells stably expressing PD-L1
Molecule,"CD28 MFI at 33.3 nM (CD28 [1]; Table E4, Jurkat cells (CD28))","Relative Luciferase Units (RLU), CD80-Fe Cone 50 nM (CD28 [2]) [RLU]",CTLA4 MFI at 33.3 nM (huCTLA4; [4]),CD28 Fold change to WT CD80 (CD28 [1]; Table E4),CTLA4 Fold change to WT CD80 (huCTLA4; Table E4),PD-L1 MFI at 33.3 nM (huPD-L1; [5]),PD-L1 Fold change to WT CD80 (huPD-L1; Table E4),Ratio of PDL1:CD28 (huPD-L1; Table E4),Fold Increase over WT CD80-IgV-Fe (CD28 [2]),further results
B1,,,,,,,,,,"CD28 MFI at 33.3 nM (CD28 [1]; Table E3): 646; CD28 MFI at 33.3 nM (CD28 [1]; Table E19, Jurkats (CD28)): 46.3; CTLA4 MFI at 33.3 nM (huCTLA4; Table E3, 33.3 nM): 336179; CTLA4 MFI at 33.3 nM (huCTLA4; Table E19, CHO cells stably expressing CTLA4, 33.3 nM): 12909; PD-L1 MFI at 33.3 nM (huPD-L1; Table E3): 33200; PD-L1 MFI at 33.3 nM (huPD-L1; Table E19, CHO cells stably expressing PD-L1): 6097; Relative Luciferase Units (RLU), CD80-Fc Conc. 50 nM (CD28 [2]; Table E7): 2852 RLU"
B2,2161,1748,,,,,,,,"CD28 MFI at 33.3 nM (CD28 [1]; Table E20, Jurkats (CD28)): 236; Relative Luciferase Units (RLU), CD80 Conc 5.0 nM (CD28 [3]): 766 RLU"
B3,15299,1388,245711,,,,,,,
B4,7269,1123,151600,,,,,,,
B5,644,213,116798,0.04,0.74,31151,2.62,48,1.0,
B6,6360,1190,,,,36216,,,,
B7,4095,1438,247703,0.23,1.57,35710,3.01,9,7.0,
B8,3540,1506,230588,,,,,,,
B9,2698,1672,249456,0.15,1.59,12978,1.09,5,8.1,
B10,336,227,4694,0.02,0.03,1590,0.13,5,1.1,
